Measured values reported in article PMC9867282.

Target: cytosolic carboxypeptidase 6 (CCP6), endogenous (human (endogenous in HEK 293T)) (UniProt Q5VU57)
Assay: proximity ligation; Duolink PLA in HEK 293T cells fixed with 4% paraformaldehyde; primary antibodies against the two proteins; confocal microscopy; three independent experiments, at least 75 cells in total

Chain of UniProt Q5VU57 (Q5VU57 whole entry): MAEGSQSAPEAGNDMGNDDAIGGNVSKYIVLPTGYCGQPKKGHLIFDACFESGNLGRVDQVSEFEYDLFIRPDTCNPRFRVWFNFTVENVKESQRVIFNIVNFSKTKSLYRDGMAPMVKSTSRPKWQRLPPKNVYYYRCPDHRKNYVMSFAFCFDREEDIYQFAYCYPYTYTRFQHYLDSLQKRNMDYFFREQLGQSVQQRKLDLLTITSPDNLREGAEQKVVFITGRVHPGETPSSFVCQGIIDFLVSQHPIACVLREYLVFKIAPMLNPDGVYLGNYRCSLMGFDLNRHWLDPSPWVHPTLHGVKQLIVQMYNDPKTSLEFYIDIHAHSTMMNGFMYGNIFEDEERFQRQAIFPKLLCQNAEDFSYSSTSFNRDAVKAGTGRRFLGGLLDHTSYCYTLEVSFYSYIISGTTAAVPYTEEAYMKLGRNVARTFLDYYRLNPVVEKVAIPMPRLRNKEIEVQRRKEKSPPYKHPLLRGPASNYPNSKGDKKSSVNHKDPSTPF

Row | percent of cells with a positive PLA signal [%] | Substance
1 | 37 | Progesterone-induced-blocking factor 1 PIBF1 (from UniProt Q8WXW3 1-757) (natural protein)
2 | 52 | NudC (from UniProt Q9Y266 1-331) (natural protein)
3 | 73 | Pericentriolar material 1 protein PCM1 (from UniProt Q15154 1-2024) (natural protein)
